{
  "source": "paper PMC4081106",
  "about": "(Nucleic Acids Research, 2014)",
  "proteins": {"B1": {"name": "TtcA protein from Escherichia coli, N-terminal hexahistidine-tagged (6his-TtcA) (enzyme, E. coli, UniProt P76055 1-311, looked up)", "chain": "MQENQQITKKEQYNLNKLQKRLRRNVGEAIADFNMIEEGDRIMVCLSGGKDSYTMLEILRNLQQSAPINFSLVAVNLDQKQPGFPEHVLPEYLEKLGVEYKIVEENTYGIVKEKIPEGKTTCSLCSRLRRGILYRTATELGATKIALGHHRDDILQTLFLNMFYGGKMKGMPPKLMSDDGKHIVIRPLAYCREKDIQRFADAKAFPIIPCNLCGSQPNLQRQVIADMLRDWDKRYPGRIETMFSAMQNVVPSHLCDTNLFDFKGITHGSEVVNGGDLAFDREEIPLQPACWQPEEDENQLDELRLNVVEVK"}},
  "molecular_target": "the molecule itself",
  "experiment": "SEC + SEC-MALS",
  "data": [
    {"protein": "B1", "values": [
      {"measurement": "stoichiometry N", "result": 2}
    ]}
  ]
}
